Measurements: CN116199778A (SHANGHAI JUNSHI BIOSCIENCES CO LTD; JUNMENG BIOSCIENCES CO …, dated 2023)

T1: 含有His标签的鼠4-1BB (mouse 4-1BB with His tag, Sino Biological 50811-M08H) (mouse, UniProt P20334 24-187)
T1 construct: Bought protein; Coated on the ELISA plate at 1.0 ug/mL; not shown: His tag
T1 sequence (looked up): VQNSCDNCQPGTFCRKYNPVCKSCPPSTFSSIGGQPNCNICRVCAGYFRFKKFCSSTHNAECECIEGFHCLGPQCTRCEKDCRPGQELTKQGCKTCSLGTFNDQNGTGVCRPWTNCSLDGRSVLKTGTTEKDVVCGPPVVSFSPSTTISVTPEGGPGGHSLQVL


Tests used:
[1] = molecular target: 4-1BB on the surface of Jurkat NFKB 4-1BB cells (UniProt Q07011 24-255, limits assumed); experiment: cell-based or functional assay
[2] = molecular target: T1, 含有His标签的鼠4-1BB (mouse 4-1BB with His …); experiment: ELISA, His-tagged mouse 4-1BB coated at 1.0 ug/mL, antibody titrated, anti-human IgG4 Fc HRP detection

4-1BB on the surface of Jurkat NFKB 4-1BB cells, sequence (Q07011 24-255 limits assumed): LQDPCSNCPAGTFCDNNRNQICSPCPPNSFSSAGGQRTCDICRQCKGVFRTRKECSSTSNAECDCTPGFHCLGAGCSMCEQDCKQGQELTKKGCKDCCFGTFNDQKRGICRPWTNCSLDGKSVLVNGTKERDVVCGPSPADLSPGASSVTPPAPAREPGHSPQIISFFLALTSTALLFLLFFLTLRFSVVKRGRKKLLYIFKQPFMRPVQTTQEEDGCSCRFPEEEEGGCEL

Row | Binder | EC50, luciferase reporter (RLU), Raji / Jurkat NFKB 4-1BB two-cell system [1] [µg/mL] | EC50, luciferase reporter (RLU), Raji / Jurkat NFKB (4-1BB low expression) two-cell system [1] [µg/mL] | EC50, luciferase reporter (RLU), THP-1 / Jurkat NFKB 4-1BB two-cell system [1] [µg/mL] | binding result [2]
1 | Urelumab (antibody, V domains shown) VH: QVQLQQWGAGLLKPSETLSLTCAVYGGSFSGYYWSWIRQSPEKGLEWIGEINHGGYVTYNPSLESRVTISVDTSKNQFSLKLSSVTAADTAVYYCARDYGPGNYDWYFDLWGRGTLVTVSS VL: EIVLTQSPATLSLSPGERATLSCRASQSVSSYLAWYQQKPGQAPRLLIYDASNRATGIPARFSGSGSGTDFTLTISSLEPEDFAVYYCQQRSNWPPALTFGGGTKVEIK | 7.24 | 86 | 219 | –
2 | JS011-phage6 (antibody, V domains shown) VH: QVQLVQSGAEVKKPGASVKVSCKASGYTFTGQYIHWARQAPGQGLEWMGWINPNSGGTNYAQKFQGRVTMTRDTSISTAYMELSRLRSDDTAVYYCARDKAGADYWGQGTLVTVSS VL: ELALTQPPSVSGSPGQSITISCTGTSSDIGGYDYVSWYQQYPGKAPKLMISGVSNRPSGVSNRFSGSKSGNTASLIISGLQAEDEGDYYCSSYTSRSTRWVFGGGTKLTVL | 2.71 | – | 0.283 | no binding (tested: 1μg/ml起始)
3 | JS011-phage3 (antibody, V domains shown) VH: not shown VL: ELELTQPPSVSVSPGQTASITCSADKLGDKYASWYQQKPGQSPVLVLYEDSKRPSGIPERISGSNSGNTATLTIRGTQPMDEADYYCQTWDTNTVLFGGGTRLTVL | 9.45 | 9.45 | 0.00664 | –
